Reference: a protein production outcome set (Wang et al. 2014)

Assay: label from the status in PepcDB records
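Note: failed if final PepcDB status was selected cloned or expressed and not failed if soluble or beyond.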

Sequence	protein production
MEQRRVTDFFARRRPGPPRIAPPKLACRTPSPARPALRAPASATSGSRKRARPPAAPGRDQARPPARRRLRLSVDEVSSPSTPEAPDIPACPSPGQKIKKSTPAAGQPPHLTSAQDQDTISELASCLQRARELGARVRALKASAQDAGESCTPEAEGRPEEPCGEKAPAYQRFHALAQPGLPGLVLPYKYQVLAEMFRSMDTIVGMLHNRSETPTFAKVQRGVQDMMRRRFEERNVGQIKTVYPASYRFRQERSVPTFKDGTRRSDYQLTIEPLLEQEADGAAPQLTASRLLQRRQIFSQKLVEHVKEHHKAFLASLSPAMVVPEDQLTRWHPRFNVDEVPDIEPAALPQPPATEKLTTAQEVLARARNLISPRMEKALSQLALRSAAPSSPGSPRPALPATPPATPPAASPSALKGVSQDLLERIRAKEAQKQLAQMTRCPEQEQRLQRLERLPELARVLRSVFVSERKPALSMEVACARMVGSCCTIMSPGEMEKHLLLLSELLPDWLSLHRIRTDTYVKLDKAADLAHITARLAHQTRAEEGL	failed
MEQSLGSKQNLGSKQNQITKPHKLVLDNRKRTNLTGIEDVVEFDTTQIVLESSMGMLVIKGADLKITRLSIEKGEADIDGSVNSVIYSQIKNYGEKGKSVLKRMFS	failed
MEQTDITSLIPIAITLIISLTTRNVVVGLFAGVLSGVAMLNGLFTTLGPFETFGVMVKSYISPQLTDSYNAGVIVLLVFIGGFVALMEKSGGGLAFAEKVTLWVKSKFQAQTSAWLGGIIIFFSDLGTPLIVGPVFRPLFDKLKISRQKLAFIIDSTSSPVAILIPFIGWGVYIMGLIQKEFTALNVTDITDWDAFLGAIPYQFYAILAIAIVPLVALKKLDFGPMAKAEAIASKGELHASSDISKEIFTHKNAKASFVWAPLLVMGAVLVFMLAPLGFPFEKVSGSVFRSALSTAYFFAAFTLIILMAMNKVRSLSDGISVYMKGMGNMMQVAIILILAWTLSSVGKELGAAAYIAEQAQNGFPYWLVPAVSFLLAAIISFATGSSWGTFAIMMHLVIPTAITIDAPMFVCIGAVLSGGLFGDHCSPISETTILSSTGAGCDQFEHFKTQLPYALLNGGIALVSFLIAGIFDNPLIFILALIAQVTLVVTLAKLTPENMFNKSKLVAGNQLG	failed
MERHQHLLSEYQQILTLSEQMLVLATEGNWDALVDLEMTYLKAVESTANITISSCSSLMLQDLLREKLRAILDNEIEIKRLLQLRLDRLSDLVGQSTKQQAVNNTYGQFPDHALL	not failed
MERISLSFVGDVMLAGSATDTLQRYGYSYPFSATAAELRRSDLVVGNLEAPLTDGGREFRAKRFRFKASPVAAAALKRAGFSVMTLANNHMMDFGADGLSDTIHHLNRNGIAFAGAGPSIADARREASVTVRGQTVAFLAYSLTQPIEFFATEGRPGTAPGYAGHYLADIRRVRSSADHVVVSFHWGQERAALPSPYQIETAHRAIDAGADIVIGHHPHVLQGIEIYRGSPIFYSLGNFAFGSRSPSADRSIIARVTLGEGPPIVEVIPLNVLFREVRFQPAILTGRKAADVVDRLNRLSAPFSTVITSTAGSHLVAPAEANARLARRQLEHHHHHH	failed
MERKFMSLQPSISVSEMEPNGTFSNNNSRNCTIENFKREFFPIVYLIIFFWGVLGNGLSIYVFLQPYKKSTSVNVFMLNLAISDLLFISTLPFRADYYLRGSNWIFGDLACRIMSYSLYVNMYSSIYFLTVLSVVRFLAMVHPFRLLHVTSIRSAWILCGIIWILIMASSIMLLDSGSEQNGSVTSCLELNLYKIAKLQTMNYIALVVGCLLPFFTLSICYLLIIRVLLKVEVPESGLRVSHRKALTTIIITLIIFFLCFLPYHTLRTVHLTTWKVGLCKDRLHKALVITLALAAANACFNPLLYYFAGENFKDRLKSALRKGHPQKAKTKCVFPVSVWLRKETRV	failed
MERKGIFIKVFSYTIIVLLLLVGVTATLFAQQFVSYFRAMEAQQTVKSYQPLVELIQNSDRLDMQEVAGLFHYNNQSFEFYIEDKEGSVLYATPNADTSNSVRPDFLYVVHRDDNISIVAQSKAGVGLLYQGLTIRGIVMIAIMVVFSLLCAYIFARQMTTPIKALADSANKMANLKEVPPPLERKDELGALAHDMHSMYIRLKETIARLEDEIAREHELEETQRYFFAAASHELKTPIAAVSVLLEGMLENIGDYKDHSKYLRECIKMMDRQGKTISEILELVSLNDGRIVPIAEPLDIGRTVAELLPDFQTLAEANNQRFVTDIPAGQIVLSDPKLIQKALSNVILNAVQNTPQGGEVRIWSEPGAEKYRLSVLNMGVHIDDTALSKLFIPFYRIDQARSRKSGRSGLGLAIVQKTLDAMSLQYALENTSDGVLFWLDLPPTSTL	failed
MERKLSNGCVASKSEELAKQQLPPPPDQDQEQPALQPPKVNGLKENQAVKHNNNNNTNNNNNKNGLVNGNAKKDELKAAEDHDTQSKEDDDPKEKVVKPKLNGNLIKNPIDKTAETQDKIAQPAPEPPLPKRPKLETPTSNEVTKANGQLVQQQLESRESEEEPQHVDE	failed
MERLISHPPLMIVSDLDHTMVDHQDHENLSLLRFNSLWEYAYRRDSLLVFSTARSPVLYKELRKEKPLLTPDIIITSIGTEIAFGNSMVPDHAWVESLNSCKWNREIVLEETSKFPELTLQPKTEQRLHKVSFYIDEGKGEALTKELSQLLEKRGLDVKIIYSWGKNVDVIPRGAGKGEALEYLLKKLQAEGIFPVNTLACGDSEHDAELFSIPDVHGVMVSNSQEELLKWRSENALNNLKVIHSTERCADGIIQAIGHFNLGPDLSPRDVSEFLDRKMDNVNPGHEVVRFYLFYERLRRGEIKNYETYIASFKDSCAEKSLRDTIDELKKCYGDKRGKKFWVWVDQVLVTDTIPGKWIVKFDKWEQCEDESQCCKTTVEFTSKGGDLVWEKVKQIWSEESKVKDDNSSWIL	not failed
MERLTRWLLVMMAMLLAASGLVWFYNSNHLPVKQVSLKGNLVYSDKKTLGSLAKEYIHGNILRTDINGAQEAYRRYPWIASVMVRRRFPDTVEVVLTERKPVARWGDHALVDGEGNVFEARLDRPGMPVFRGAEGTSAEMLRRYDEFSTVLAKQGLGIKEMTYTARSAWIVVLDNGITVRLGRENEMKRLRLFTEAWQHLLRKNKNRLSYVDMRYKDGFSVRYASDGLPEKESEE	failed
MERNANYALVGAISLALFMGLVIFAVWLAKLSFNRDYDVYDILFVGPVRGLSQGGEVHFNGIKVGEVTRIELDKTDTNRVIARVRVTSDVPIKVDSYATLEPQGITGVNYVQITAGAPNKELLKDTVKTGKVPVIRTQRSALSDLLEGGGTVLTRTIEALDRVNRVLSDRNIKSFGATLTNVQAVTQEMRDRKEILADAQKALQSIDQTAQSITELSNSANTLVDGDAKRTLKELGDAAAELRATAKDARGMVTKLEGPASDFATTGLPQLSSAIVTLQSAAESLDRLVGEVEQNPRGVVGKAPAKEVEVKPLEHHHHHH	not failed
MERRTILVTGASGFVGGALCRQLATLGSFAIRAASRDLGGASVAGIQAVTVADLSATTDWARALSGVDLVVHAAARVHVMKETASDSLAEFRRVNVDGTLNLARQAAAAGVRRFIFISSIKVNGESSQPGQPLRADDSPAPQDAYGVSKHEAEQGLRQLAAATGMEVVVIRPVLVYGPGVKANFHSMMRWLQRGVPLPFGAVCNRRSLVSLANLVDLVVTCIDHPRAANQTFLASDGDDVSLTQLLRALGLALGRPARLLPVPAGLLRGAVLLIGRRDLAQRLFGTLQVDIEKNRQLLGWYPPCTLEQGLNMTARSFLGARRP	failed
MERSAIQIPAGRIDDAVAKVDGLVGELMQNTGIPGMAVAIVHGGKTLYAKGFGVRDVGKGGGPDNKVDADTVFQLASVSKSVGATVVAHAVTDNVVTWDTPVVSKLPWFALRDPYVTGQVTIADLYSHRSGLPDHAGDLLEDLGYDRRQVLQRLKYLPLAPFRISYAYTNFGVTAAAEAVAAAAGQSWEDLSDEVLYRPLGMGSTSSRFTDFLARPNHAVNHVKVADRWEARYQRDPDAQSPAGGVSSSLNDMTHWLAMVLADGVYNGRRITSPEALLLVYTPQVISRHPVSPRARASFYGYGFNVGVTSSGRTEYSHSGAFGLGAAANFVVLPSEDLAIIALTNAGPIGVPETLTAEFMDLVQYGQVREDWAALYKKAFAPLNELAGSLVGKQSPANPAPSRPLNDYVGVYANDYWGPATVTYHDGQLRLSLGPKNQTFDLTHWDGDTFTFTLSTENALPGSISKATFAGDTLNLEYYDADKLGTFTRLEHHHHHH	failed
MERVSERSLSENLRRSDREDGKIIEWEEFDHELTRLWSLSSAMKLATERKQILQPKLESLIQVSTESLRRTNELEEMRQRLEARKLLVDKTSVACKVTEQDVKKKEENLSTEVRSLLVGGTTLSIAKSKLQESNCQLEGESGYAHLKIVTNKLRKRQQFMVSQVSFIYPLKIEAGPSQDQELESFPGGSRLGTKPLSQGSVRILGLPFSMAPFTKMSFFTDKKEVQKSATALGYVAHAVSLIAPYLRVPIRYPLCLGGSKTYIRDYAPYIEPSPSDMSPITTLSQNINFVEFPLFLDGQDTTRAAYAVFLLNKNIEQLLNFVGENSLGPRQVLANLKELIRIIQSPDYIDYL	failed
MESADSGRSDPVKGDDPGPSFVSSPPATPSRYESQKRRDWNTFLQYLKNHKPPLALSRCSGAHVIEFLKYLDQFGKTKVHVAACPYFGHQQPPSPCSCPLKQAWGSLDALIGRLRAAYEENGGRPDSNPFAARAVRIYLREVRESQAKARGIPYEKKKRKRPPTVTTVRVDVASSRQSDGDPCNVGAPSVAEAVPP	failed
MESDIEILSEADASMRKLRIFGIDDREDENGRRRIKDVEVYVPIVCGSIAFYLGKKATEYRTHKWTVYVRGATNEDLGVVIKRVIFHLHPSFNNPTRVVDAPPFALSECGWGEFKIDITVFFHTDVCEKKLELSHVLKLNPENAYGPIPKSIKIPVVAESYNEVVFPDPFESFVARVHNHPAIQISNIPDGLNLPPPGAFLF	not failed
MESFHPLSLLKPSIRGWCIRGRVVRTFLVSLVPSSKVMGLILAEEHGMTIEATVGYKMSDHYKDFINEGEWVTITNFGVVENSGSVRATTHSFKIGFFVDIVVRLTSPLPAIPHYRLASFSSIIDDEIDKSVLVDLVGAIYDVGELINTRPKQNNVDDLTLIFKISDNENRVLECLATKKEALDFDHNYRRYGGGVIVAVLGWWKIDRYFDGPKNVRVCTAGTISTVFPDPDIPESNEIHEI	failed
MESLSIIFRWFVGLRSVGSSLGRKPDQTEETTLTTKLDIAPANDRELVVARIIDAPRENVYRCWTDTRLLTQWFSPKPWTTPRAEMDMRTGGSSLVIMADPDGNEFPNPGVFLEVIPGKKIIFTDAYTQAWEPSEKPFMTGVLTFEDEGEGRTRYIARVRHWSVADRERHEAMGFHVGWGQCTDQLEDLARTL	failed
MESLTLQPIELISGEVNLPGSKSVSNRALLLAALASGTTRLTNLLDSDDIRHMLNALTKLGVNYRLSADKTTCEVEGLGQAFHTTQPLELFLGNAGTAMRPLAAALCLGQGDYVLTGEPRMKERPIGHLVDALRQAGAQIEYLEQENFPPLRIQGTGLQAGTVTIDGSISSQFLTAFLMSAPLAQGKVTIKIVGELVSKPYIDITLHIMEQFGVQVINHDYQEFVIPAGQSYVSPGQFLVEGDASSASYFLAAAAIKGGEVKVTGIGKNSIQGDIQFADALEKMGAQIEWGDDYVIARRGELNAVDLDFNHIPDAAMTIATTALFAKGTTAIRNVYNWRVKETDRLAAMATELRKVGATVEEGEDFIVITPPTKLIHAAIDTYDDHRMAMCFSLVALSDTPVTINDPKCTSKTFPDYFDKFAQLSR	not failed
MESMQDLWTLKYRAETLEGMLGNEHAVRTLSELLQSGTLPHLIFYGPENSGKTTASLALARELYGETWKNNFVYFNASDFFDQGKRYLVRDKRFVRILGTDDPKKIYKSVIDIFKEVVNEYAGMASIDADYKIIYIDNAESLSSDAQHALRRIMEKYSSTCRFILSTTRPSKLISPLRSRGLQVFFAYVPDSLLKTHLERIALAEKLKLSDGALDAVLYLAKGNVARAVQTLQLAALRSEGAEITEEIVYEATMKGRDETIDELLEAALAGDFARGRQLIDGMIIEKGLSGTDIFEGLSEALIDSGETDADIARLIVSISEADARLTDATSERIQLEKLISTFS	failed
